Ends that are not written are not given here.
How the values were obtained:
Type in all cases: cell-based
[1] = target: T1, αvβ3 integrin (Homo sapiens, UniProt P05106+P06756); test: Adhesion of K562-αvβ3 cells to GST-LAPβ1 (amino acids 242–252) coated wells; settings: matrix titration or 0.5 μg coated, 2 mM MgCl2
T1 construct: expressed in transfected cells; host or cells: K562
Procedure: All proteins were coated onto Maxisorp 96-well plates (Nunclon) overnight at 4° C. Each protein was diluted in PBS at the concentrations indicated, and a total volume of 100 ul added per well. Plates were washed twice in PBS then blocked with 3% BSA/PBS for 1 hour at 37° C., and finally washed twice in PBS. Cells were pelleted and washed once in HBSS (Sigma) then spread in HBSS, 25 mM HEPES pH 7.5 at the desired cell concentration (K562-WT, K562-αvβ6, HL60 at 6×10^6 cells/ml, K562-αvβ5, K562-αvβ3 at 4×10^6 cells/ml, 100 ul per well), in the presence of either 2 mM MgCl2 or 0.5 mM MnCl2 as indicated in the figure legends. […] For antibody inhibition cells were pre-incubated with the antibody (10 μg/ml) on ice for 5 minutes. Cells were then allowed to attach for 35 minutes at 37° C., washed twice with PBS, once in ethanol, and fixed in ethanol for 20 minutes at room temperature. For quantitation cells were visualised by staining with 0.1% crystal violet (Sigma) for 10 minutes then lysed in 0.5% Triton X-100 (Sigma) and read optically at 570 nm in a Wallac Victor plate reader.

[2] = target: T2, αvβ5 integrin (Homo sapiens, UniProt P06756+P18084); test: Adhesion of K562-αvβ5 cells to LAP-β1 coated wells; settings: coated at 10 μg/ml, 2 mM MgCl2
T2 construct: expressed in transfected cells; host or cells: K562
T2 sequence (P06756 31-889 limits assumed): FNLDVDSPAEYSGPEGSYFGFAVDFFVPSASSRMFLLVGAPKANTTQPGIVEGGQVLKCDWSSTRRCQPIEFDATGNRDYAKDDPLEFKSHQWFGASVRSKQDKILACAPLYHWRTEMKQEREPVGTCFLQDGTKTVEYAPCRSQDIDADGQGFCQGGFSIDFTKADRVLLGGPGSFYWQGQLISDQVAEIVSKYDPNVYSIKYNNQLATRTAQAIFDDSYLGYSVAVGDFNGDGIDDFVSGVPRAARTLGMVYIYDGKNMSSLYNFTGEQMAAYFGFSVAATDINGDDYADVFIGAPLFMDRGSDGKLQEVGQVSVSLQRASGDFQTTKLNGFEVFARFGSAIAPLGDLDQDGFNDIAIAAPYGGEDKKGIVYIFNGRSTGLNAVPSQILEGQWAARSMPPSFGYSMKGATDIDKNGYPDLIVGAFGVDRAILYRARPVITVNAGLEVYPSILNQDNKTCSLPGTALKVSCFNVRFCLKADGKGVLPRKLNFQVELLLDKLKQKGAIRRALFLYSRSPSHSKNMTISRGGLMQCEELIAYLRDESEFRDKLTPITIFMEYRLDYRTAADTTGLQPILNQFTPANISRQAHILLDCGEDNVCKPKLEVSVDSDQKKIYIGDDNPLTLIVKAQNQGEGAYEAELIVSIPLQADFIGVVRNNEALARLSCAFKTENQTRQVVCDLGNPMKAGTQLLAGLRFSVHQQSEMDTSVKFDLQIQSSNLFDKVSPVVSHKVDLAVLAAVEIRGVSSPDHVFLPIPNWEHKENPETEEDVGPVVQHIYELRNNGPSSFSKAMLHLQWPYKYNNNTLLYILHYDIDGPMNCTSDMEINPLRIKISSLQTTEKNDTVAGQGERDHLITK
T2 sequence (P06756 891-1048 partner limits assumed): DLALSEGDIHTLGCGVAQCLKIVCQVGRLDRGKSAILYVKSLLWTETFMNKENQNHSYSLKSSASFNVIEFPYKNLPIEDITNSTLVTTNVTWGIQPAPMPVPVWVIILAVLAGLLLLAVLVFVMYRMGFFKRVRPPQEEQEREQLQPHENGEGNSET
T2 sequence (P18084 24-799): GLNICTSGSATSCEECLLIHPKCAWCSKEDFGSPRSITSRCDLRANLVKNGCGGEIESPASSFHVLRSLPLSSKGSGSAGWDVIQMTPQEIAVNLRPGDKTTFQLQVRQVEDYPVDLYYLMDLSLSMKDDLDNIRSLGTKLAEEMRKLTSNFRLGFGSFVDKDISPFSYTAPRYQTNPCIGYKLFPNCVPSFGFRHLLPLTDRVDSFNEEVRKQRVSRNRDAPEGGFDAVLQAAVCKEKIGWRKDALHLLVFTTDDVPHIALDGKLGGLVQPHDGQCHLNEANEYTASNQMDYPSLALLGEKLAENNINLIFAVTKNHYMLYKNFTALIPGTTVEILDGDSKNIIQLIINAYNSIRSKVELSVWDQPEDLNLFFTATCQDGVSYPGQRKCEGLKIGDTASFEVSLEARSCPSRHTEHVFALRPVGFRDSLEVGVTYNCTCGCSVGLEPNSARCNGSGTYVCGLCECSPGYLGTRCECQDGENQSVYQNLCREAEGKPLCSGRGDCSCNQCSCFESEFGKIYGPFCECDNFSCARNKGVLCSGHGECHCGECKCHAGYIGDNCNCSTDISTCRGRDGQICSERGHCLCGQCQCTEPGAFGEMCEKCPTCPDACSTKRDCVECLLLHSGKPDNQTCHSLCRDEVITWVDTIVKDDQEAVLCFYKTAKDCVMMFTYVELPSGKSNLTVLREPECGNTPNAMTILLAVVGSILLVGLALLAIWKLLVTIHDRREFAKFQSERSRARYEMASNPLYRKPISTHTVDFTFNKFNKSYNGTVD
Procedure: (§1) Cells were allowed to attach to wells coated with LAP-β1 at 10 μg/ml. Cells were incubated for 35 minutes at 37° C. in HBSS supplemented with 25 mM HEPES pH 7.5, and either 0.5 mM MnCl2 (K562-WT, HL60, K562-αvβ6) or 2 mM MgCl2 (K562-αvβ3, K562-αvβ5). Each bar represents the mean±SD of duplicated points.
(§2) K562-WT (wild-type), K562-αvβ6, K562-αvβ5, K562-αvβ3, and HL60 cells were maintained in 1:1 RPMI 1640, Hepes modification (Gibco): Dulbecco's Minimum Essential Medium (DMEM), Hepes modification (Sigma) supplemented with L-glutamine (Gibco) and 10% fetal calf serum (FCS). In addition K562-αvβ3, K562-αvβ5, and K562-αvβ6 cells were supplemented with geneticin (G418, Gibco) at 1 mg/ml. All transfected cells were generated by transfecting K562 cells with pCDNA-3 constructs containing individual integrin cDNAs, using lipofectamine plus (Gibco BRL).
(§3) All proteins were coated onto Maxisorp 96-well plates (Nunclon) overnight at 4° C. Each protein was diluted in PBS at the concentrations indicated, and a total volume of 100 ul added per well. Plates were washed twice in PBS then blocked with 3% BSA/PBS for 1 hour at 37° C., and finally washed twice in PBS. […] For quantitation cells were visualised by staining with 0.1% crystal violet (Sigma) for 10 minutes then lysed in 0.5% Triton X-100 (Sigma) and read optically at 570 nm in a Wallac Victor plate reader.

[3] = tested on: HL60 cells; test: Adhesion of HL60 cells to LAP-β1 coated wells; settings: coated at 10 μg/ml, 0.5 mM MnCl2
Procedure: as §1, §2, §3

[4] = target: T1, αvβ3 integrin; test: Adhesion of K562-αvβ3 cells to LAP-β1 coated wells; settings: coated at 10 μg/ml, 2 mM MgCl2
Procedure: Cells were allowed to attach to wells coated with quantities of LAP-β1 indicated. […] The buffer used was HBSS supplemented with 25 mM HEPES pH 7.5, and 2 mM MgCl2. Each data point represents the mean±SD of duplicated samples.
The buffer used was HBSS supplemented with 25 mM HEPES pH 7.5, and 2 mM MgCl2. Adhesion to each ligand in the absence of compound was taken as a 100% binding value, with adhesion to BSA alone as a 0% binding value. The 100% binding values corresponded to the following absorbances at 570 nm: Fibrinogen=0.8, Vitronectin=0.9, LAP-β1=0.9. Each data point represents the mean±SD of duplicated samples. […]

[5] = tested on: K562-WT cells; test: Adhesion of K562-WT cells to LAP-β1 coated wells; settings: coated at 10 μg/ml, 0.5 mM MnCl2
Procedure: as §1, §2, §3

[6] = target: T3, αvβ6 integrin (Homo sapiens, UniProt P06756+P18564); test: Adhesion of K562-αvβ6 cells to LAP-β1 coated wells; settings: coated at 10 μg/ml, 0.5 mM MnCl2
T3 construct: expressed in transfected cells; host or cells: K562
T3 sequence (P06756 31-889 limits assumed): as the sequence (P06756 31-889 limits assumed) above
T3 sequence (P06756 891-1048 partner limits assumed): as the sequence (P06756 891-1048 partner limits assumed) above
T3 sequence (P18564 22-788): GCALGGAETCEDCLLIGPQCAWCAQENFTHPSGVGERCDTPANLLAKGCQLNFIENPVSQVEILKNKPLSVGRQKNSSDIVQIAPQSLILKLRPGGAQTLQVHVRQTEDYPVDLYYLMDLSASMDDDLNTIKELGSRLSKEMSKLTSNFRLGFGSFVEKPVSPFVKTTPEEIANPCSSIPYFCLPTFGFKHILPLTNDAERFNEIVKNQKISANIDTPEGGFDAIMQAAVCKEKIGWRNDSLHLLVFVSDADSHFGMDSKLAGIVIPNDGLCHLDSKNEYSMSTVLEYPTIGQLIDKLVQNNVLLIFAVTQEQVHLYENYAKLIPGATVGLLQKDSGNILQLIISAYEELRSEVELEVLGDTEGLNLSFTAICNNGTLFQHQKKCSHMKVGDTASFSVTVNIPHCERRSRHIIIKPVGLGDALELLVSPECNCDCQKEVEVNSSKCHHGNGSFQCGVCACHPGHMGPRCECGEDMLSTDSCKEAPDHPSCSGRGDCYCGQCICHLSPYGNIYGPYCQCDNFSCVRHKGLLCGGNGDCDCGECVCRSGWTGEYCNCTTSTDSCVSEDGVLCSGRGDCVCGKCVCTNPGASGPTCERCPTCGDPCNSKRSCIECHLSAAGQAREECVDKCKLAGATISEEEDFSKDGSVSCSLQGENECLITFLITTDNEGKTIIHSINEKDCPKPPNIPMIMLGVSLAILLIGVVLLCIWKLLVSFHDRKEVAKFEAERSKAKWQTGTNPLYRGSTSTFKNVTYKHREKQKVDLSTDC
Procedure: as §1
Cells were allowed to attach to wells coated with LAP-β1 at 10 μg/ml. Cells were incubated for 5 minutes on ice, then for 35 minutes at 37° C., in the presence of antibodies at 10 μg/ml as indicated. The buffer used was HBSS supplemented with 25 mM HEPES pH 7.5, and 2 mM MgCl2. Each bar represents the mean±SD of duplicated samples.
as §2, with “All transfected cells were generated by transfecting K562 cells with pCDNA-3 constructs containing individual integrin cDNAs, using lipofectamine plus (Gibco BRL).” left out
All proteins were coated onto Maxisorp 96-well plates (Nunclon) overnight at 4° C. […] For quantitation cells were visualised by staining with 0.1% crystal violet (Sigma) for 10 minutes then lysed in 0.5% Triton X-100 (Sigma) and read optically at 570 nm in a Wallac Victor plate reader.

T1 sequence (P06756 31-889 limits assumed): as the sequence (P06756 31-889 limits assumed) above
T1 sequence (P06756 891-1048 partner limits assumed): as the sequence (P06756 891-1048 partner limits assumed) above
T1 sequence (P05106 27-788): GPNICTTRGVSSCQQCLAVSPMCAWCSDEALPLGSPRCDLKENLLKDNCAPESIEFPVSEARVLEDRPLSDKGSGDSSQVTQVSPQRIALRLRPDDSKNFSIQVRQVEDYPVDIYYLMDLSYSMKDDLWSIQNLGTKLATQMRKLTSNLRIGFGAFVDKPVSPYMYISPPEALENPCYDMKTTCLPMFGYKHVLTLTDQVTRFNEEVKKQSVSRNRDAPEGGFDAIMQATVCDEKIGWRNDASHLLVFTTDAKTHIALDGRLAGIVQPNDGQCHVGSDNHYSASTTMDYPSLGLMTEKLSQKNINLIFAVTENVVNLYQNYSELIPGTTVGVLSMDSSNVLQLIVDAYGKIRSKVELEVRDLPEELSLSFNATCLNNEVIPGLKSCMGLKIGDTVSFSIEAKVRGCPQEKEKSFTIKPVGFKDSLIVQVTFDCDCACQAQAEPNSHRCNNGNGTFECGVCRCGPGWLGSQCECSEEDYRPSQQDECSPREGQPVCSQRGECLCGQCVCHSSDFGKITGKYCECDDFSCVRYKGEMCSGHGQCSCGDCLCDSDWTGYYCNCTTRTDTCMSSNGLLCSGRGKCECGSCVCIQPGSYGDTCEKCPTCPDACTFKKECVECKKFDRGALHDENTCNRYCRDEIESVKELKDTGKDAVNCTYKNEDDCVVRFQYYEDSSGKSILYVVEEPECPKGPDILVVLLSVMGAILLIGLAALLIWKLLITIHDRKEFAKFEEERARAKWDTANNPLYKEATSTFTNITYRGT

Substance | Ability to support adhesion of K562-αvβ3 cells [1] | Adhesion of K562-αvβ5 cells to the coated protein [2] | Adhesion of HL60 cells to the coated protein [3] | Adhesion of K562-αvβ3 cells to the coated protein [4] | Adhesion of K562-WT cells to the coated protein [5] | Adhesion of K562-αvβ6 cells to the coated protein [6]
GST-LAPβ1 (aa242–252): peptide fragment of LAPβ1 (amino acids 242–252, GRRGDLATIHG) containing the RGD motif, expressed as a GST fusion protein in E. coli ({GST}-GRRGDLATIHG; UniProt P01137 242-252, looked up, fragment) | supported adhesion of K562-αvβ3 cells similarly to intact LAPβ1 | – | – | – | – | –
LAP-β1: latency associated peptide-β1 of TGF-β1, amino acids 30 to 278 of SEQ ID NO: 1, obtained from Sigma | – | bound slightly | failed to bind | interacted strongly | bound slightly | adhered

Reference: patent publication US7037666B2, “Methods for identifying modulators of the interaction between lap (latency associated peptide) and intergrin αvβ3 and medical use thereof” (SmithKline Beecham Corporation, priority 2000, dated 2006)
